Data reported in the RNAGym collection of RNA variant scans (doi:10.7554/elife.80360).

B1: HDV Ribozyme (parent)
chain: GGCCGGCAUGGUCCCAGCCUCCUCGCUGGCGCCGGCUGGGCAACAUUCCGAGGGGACCGUCCCCUCGGUAAUGGCGAAUGGGACCCA

Variants of: B1
Experiment: self-cleavage, relative activity (ratio to wild type); higher = more cleavage; co-transcriptional

| Variant | self-cleavage |
| --- | --- |
| C15G G50A | 0.723 |
| C15G C48U | 0.237 |
| C15G C48A | 0.623 |
| C15U A70C | 0.776 |
| C15U A70G | 1.07 |
| A16G C48G | 0.914 |
| A16G C48A | 0.802 |
| A16G C48U | 1.42 |
| C15U C30A | 0.567 |
| C15U C30U | 0.554 |
| A16G A83U | 0.415 |
| C15U G76C | 1.03 |
| C15U G76A | 0.997 |
| C15U U37A | 0.196 |
| C15U U37C | 0.923 |
| C15U A51C | 1.17 |
| C15U A51G | 1.07 |
| C15G G67U | 0.475 |
| C15G G67A | 0.731 |
| C15G G67C | 0.415 |
| C15U G38U | 0.259 |
| C15U G38C | 0.17 |
| C15U G38A | 0.188 |
| A16C C33G | 0.227 |

| Variant | self-cleavage |
| --- | --- |
| A16C C33U | 0.688 |
| A16C C33A | 0.208 |
| C15U U47A | 1.23 |
| C15G U23G | 0.415 |
| A16G A45U | 0.712 |
| A16G A45G | 0.772 |
| C15U G28U | 0.227 |
| C15U G28C | 0.0405 |
| A16G C58G | 0.776 |
| A16G C58A | 0.762 |
| A16C C24G | 0.0692 |
| A16C C24A | 0.277 |
| A16C C24U | 0.287 |
| C15U A87G | 1.05 |
| C15U A87U | 0.993 |
| A16C G39U | 0.244 |
| A16C G39A | 0.156 |
| A16C G39C | 0.0831 |
| A16C C26G | 0.731 |
| C15U U79G | 0.703 |
| C15U C24A | 0.482 |
| C15U C24G | 0 |
| C15G G17A | 0.133 |
| C15G G17C | 0.0875 |

| Variant | self-cleavage |
| --- | --- |
| C15U A71G | 1.14 |
| C15U A71C | 0.467 |
| C15G G28A | 0.0627 |
| A16G C49U | 1.23 |
| A16G C49G | 0.875 |
| A16C G40A | 0.65 |
| A16C G40U | 0.73 |
| A16C G59U | 0.808 |
| C15U C32U | 0.73 |
| C15U C32A | 0.214 |
| A16G A42U | 0.396 |
| A16G A42G | 0.504 |
| C15U C36G | 0.128 |
| C15U C33A | 0.178 |
| C15U C33G | 0.166 |
| C15G U79A | 0.312 |
| C15U C18G | 0.0594 |
| A16C C19G | 0.0594 |
| A16C C19A | 0.277 |
| A16G A71G | 0.748 |
| A16C A43U | 0.0831 |
| C15U G25U | 0.0875 |
| C15U G25C | 0.0723 |
| C15U G80U | 0.526 |

| Variant | self-cleavage |
| --- | --- |
| C15U G80A | 0.992 |
| C15U G82U | 0.231 |
| C15U G82C | 0.166 |
| C15U C44G | 0.214 |
| C15U C44A | 0.684 |
| C15G U27A | 0.431 |
| C15U C57U | 0.864 |
| C15U C57A | 1.03 |
| C15U A78U | 0.185 |
| C15U C64U | 0.902 |
| C15G C61U | 0.434 |
| C15G C61G | 0.178 |
| C15U G74C | 0.185 |
| C15U G74U | 0.485 |
| C15U G74A | 0.383 |
| C15U G59A | 0.851 |
| C15U G59C | 1.13 |
| C15G G82C | 0.111 |
| C15U C62A | 1.08 |
| C15U C62U | 0.764 |
| C15G G74C | 0.119 |
| C15G C66G | 0.475 |
| C15G C66A | 0.665 |
| C15U G40U | 0.791 |

| Variant | self-cleavage |
| --- | --- |
| C15U G40C | 0.249 |
| C15U G40A | 0.972 |
| A16C A87U | 0.615 |
| A16C A87C | 0.671 |
| A16C G81A | 0.489 |
| C15U G68C | 0.597 |
| C15G C63A | 0.684 |
| A16C U23A | 0.89 |
| C15G U20C | 0.166 |
| C15G U20G | 0 |
| C15G G29U | 0 |
| C15U U27G | 0.511 |
| C15U U27A | 0.63 |
| C15G U65C | 0.332 |
| C15G U65A | 0.831 |
| C15G U65G | 0.886 |
| A16C U65A | 0.65 |
| A16C U65G | 0.755 |
| C15U U60A | 1.15 |
| C15U U60C | 0.969 |
| C15U U60G | 0.554 |
| C15G G68A | 0.525 |
| C15G G68U | 0.369 |
| C15G U69G | 0.256 |

| Variant | self-cleavage |
| --- | --- |
| C15G U69A | 0.604 |
| A16C C63U | 0.895 |
| A16C U27A | 0.684 |
| A16C C18A | 0.0665 |
| C15U C21A | 0 |
| C15U C21U | 0.17 |
| A16C A42G | 0.229 |
| A16G C33A | 0.268 |
| A16G C33G | 0.19 |
| C15G G55C | 0.582 |
| C15U C63A | 1.03 |
| C15U C63G | 0.776 |
| A16G C41G | 0.623 |
| A16G C18U | 0.554 |
| A16G C18A | 0.161 |
| C15U C41A | 0.962 |
| C15U C41U | 1.05 |
| A16C C57G | 0.646 |
| C15U A77G | 1.14 |
| A16C C61G | 0.7 |
| A16C C61A | 0.332 |
| A16C G80A | 0.406 |
| A16C U47G | 0.185 |
| A16C U47C | 0.95 |

| Variant | self-cleavage |
| --- | --- |
| A16G A78U | 0.0692 |
| A16G A78C | 0.308 |
| A16G A78G | 0.465 |
| C15G U47C | 0.128 |
| C15G U47G | 0.665 |
| A16C G17C | 0.266 |
| A16C G17U | 0.332 |
| A16C G76A | 1.08 |
| A16C G76U | 0.88 |
| A16C G76C | 0.731 |
| C15G G81C | 0.375 |
| C15G G81A | 0.297 |
| C15U U46A | 0.692 |
| A16C C64U | 1.02 |
| C15G C84U | 0.302 |
| C15G C84G | 0.222 |
| A16C A56U | 0.997 |
| A16C A56C | 0.639 |
| A16C A56G | 0.776 |
| C15U A56U | 0.91 |
| C15U A56C | 1.02 |
| C15U G50U | 0.991 |
| C15U G50C | 0.831 |
